Six molecules from PMC7083832, “Structural analysis of TIFA: Insight into TIFA-dependent signal transduction in innate immunity” (Scientific Reports, 2020) can be followed below.

Where a chain is given by its changes, count along the chain named. Numbers in names are those of the source. Where “and” joins values, the source holds several entries; their conditions need not be identical. Equal values may be shown once.

The chains are these.
B1: full-length mouse TIFA (TRAF-interacting protein with a forkhead-associated (FHA) domain) (natural protein, UniProt Q793I8 1-184, looked up)
chain: MSTFEDADTEETVTCLQMTIYHPGQQSGIFKSIRFCSKEKFPSIEVVKFGRNSNMCQYTFQDKQVSRIQFVLQPFKQFNSSVLSFEIKNMSKKTSLMVDNQELGYLNKMDLPYKCMLRFGEYQFLLQKEDGESVESFETQFIMSSRPLLQENNWPTQNPIPEDGMYSSYFTHRSSPSEMDENEL
notes: TIFA, mouse, full length, 184 amino acids, GenBank BAB86903.1; A SeMet form (E. coli B834(DE3)) was used only for phasing; also called wildtype TIFA; native TIFA; not shown: His tag, C-terminal, kept
B2: mouse TIFA T9D/C36S mutant (natural protein, UniProt Q793I8 1-184, looked up)
chain: B1 chain with T9D, C36S
notes: TIFA, mouse, full length, 184 amino acids, GenBank BAB86903.1, with T9D (phosphomimetic) and C36S; Dimers assemble into a hexamer in the crystal; source: E. coli BL21(DE3), pET-30b(+), purified by nearly the same procedure as for native TIFA
B3: mouse TIFA E39R/E45R/E138R mutant (natural protein, UniProt Q793I8 1-184, looked up)
chain: B1 chain with E39R, E45R, E138R
notes: TIFA, mouse, full length, 184 amino acids, GenBank BAB86903.1, with E39R, E45R and E138R; source: E. coli BL21(DE3), pET-30b(+), purified by nearly the same procedure as for native TIFA
B4: mouse TIFA E39R/E138R mutant (natural protein, UniProt Q793I8 1-184, looked up)
chain: B1 chain with E39R, E138R
notes: TIFA, mouse, full length, 184 amino acids, GenBank BAB86903.1, with E39R and E138R; source: E. coli BL21(DE3), pET-30b(+), purified by nearly the same procedure as for native TIFA
B5: mouse TIFA T9E/C36S mutant (natural protein, UniProt Q793I8 1-184, looked up)
chain: B1 chain with T9E, C36S
notes: TIFA, mouse, full length, 184 amino acids, GenBank BAB86903.1, with T9E (phosphomimetic) and C36S; source: E. coli BL21(DE3), pET-30b(+), purified by nearly the same procedure as for native TIFA
B6: mouse TRAF6-C containing a part of coiled-coil domain (amino acid residues from 326 to 516) (domain or fragment, UniProt P70196 326-516, looked up)
chain: AKMETQSMYVGELKRTIRTLEDKVAEMEAQQCNGIYIWKIGNFGMHLKSQEEERPVVIHSPGFYTGRPGYKLCMRLHLQLPTAQRCANYISLFVHTMQGEYDSHLPWPFQGTIRLTILDQSEALIRQNHEEVMDAKPELLAFQRPTIPRNPKGFGYVTFMHLEALRQGTFIKDDTLLVRCEVSTRFDMGGL
notes: TRAF6, mouse, residues 326-516: part of the coiled-coil domain and the C-terminal TRAF (TRAF-C) domain; also called TRAF-C domain of TRAF6; not shown: His tag, C-terminal, kept

Data set [1] concerns the target B6. As to the kind of experiment: SEC; TIFAs and TRAF6-C mixed at a molar ratio of 1:1 (monomer:monomer); Superdex 200; 20 mM Tris pH 8.0, 500 mM NaCl, 2 mM EDTA, 1 mM β-mercaptoethanol. The settings on record: both partners purified. Background: In gel filtration, larger molecules generally elute earlier.
Data set [2] concerns the molecule itself. As to the kind of experiment: crystal structure; hanging-drop vapour diffusion, reservoir 0.1 M MES pH 6.4, 5% (v/v) MPD (native TIFA; T9E/C36S under a similar condition); data at 100 K.
Data set [3] deals with the molecule itself. As to the kind of experiment: crystal structure; reservoir 0.1 M sodium citrate pH 5.3, 40% (v/v) PEG400 (T9D/C36S); data at 100 K.
Data set [4] deals with the molecule itself. As to the kind of experiment: SEC; each protein alone; Superdex 200; 20 mM Tris pH 8.0, 500 mM NaCl, 2 mM EDTA, 1 mM β-mercaptoethanol.

For orientation: stoichiometry N means a count of units in the complex or per binding partner. In the case of B1, the binding result in data set [1] was “binds”. In data set [2], the “stoichiometry N” value stood at 2.
For B2, in data set [3], the “stoichiometry N” value is 2 and 6. Besides, the binding result in data set [1] was “binds”.
B3: the binding result in data set [4] and in data set [1] was “binds” each time.
For the molecule B4, the binding result in data set [4] and in data set [1] was “binds” in each case.
Turning to B5, the binding result in data set [1] is “binds”. Also, in data set [2], the “stoichiometry N” value is 2.
Take B6: the “stoichiometry N” value in data set [4] came out at 3.
